In the DeepSol protein solubility set:

test: soluble on expression in E. coli; label from the status in PepcDB or PDB records

| Sequence | soluble on expression in E. coli |
| --- | --- |
| MIETTAALAEACTELAKSEFITIDTEFLRETTFWPELCLVQMASPTLEVLVDPLAKGIDLTPMFELMANPNVVKVFHAARQDIEIIYHLGGLIPHPIFDTQVAAMVCGFGDSISYDQLVQKIKNVQIDKSSRFTDWSRRPLTEKQLDYALADVTHLRDVYLSLKAQLEREGRSLWLTEEMNILESRDTYDMHPDDAWLRLKSRLRKPTELAILKFVAAWREREARSRNVPRSRVLKDDGIFEIAQQQPKDAEALSRLRTIPKGWERSASGTAIIETVNAALALPKEEMPKAPRHSHAPEGSGAAVELLKVLLKLTADKHGVAAKVIANSDDLDKIASEGENATVAALTGWRRELFGDVALKLINGEVALRFAGKKVEAVEVEAAASES | not soluble |
| MSDWTYSEGALDEAHWPQHYPACGGQRQSPINLQRTKVRYNPSLKGLNMTGYETQAGEFPMVNNGHTVQISLPSTMRMTVADGTVYIAQQMHFHWGGASSEISGSEHTVDGIRHVIEIHIVHYNSKYKSYDIAQDAPDGLAVLAAFVEVKNYPENTYYSNFISHLANIKYPGQRTTLTGLDVQDMLPRNLQHYYTYHGSLTTPPCTENVHWFVLADFVKLSRTQVWKLENSLLDHRNKTIHNDYRRTQPLNHRVVESNFPNQEYTLGSEFQAENLYFQ | soluble |
| MGSDKIHHHHHHMITRLHEPYLALLQQAMLAATPSGSRVALDLGCGDGSKTRWLRACSASDALIVGVDRDGSVLRAADDMMFIAGDASHLPLRDACIDLVWCIAALNLFPHRHLALREMWRVLRHGGTLVVASAGEYWVRLRNHPAPLIAALPDTPLPLPPADGLDEEWLLLMAAAGFQPRQTQAYLLDGGRLAQVALINSEALTSYLSLPPCASPVADPEPRHLLIVTSARKG | not soluble |
| MKVEILPFGNMDQWVTREIKESGIIGGNTKKVYAIGPTETIVGAKPYANKGGSPWGTSNVMARVSGITKTNTSVFPETRGDGFCARLDTRMESVKVLGIVDITVLAAGSMFLGTVHEPIKSTKNPNKMLQMGIPFTDRPSAIQFDYKVKMSDRENRIRATGFSKITDVPGKDFPAVILLLQKRWEDAKGNVYAKRIGTMVNYYYHSTDWKNGSKYDIMYGDITKDPAYKAHMMRLQASEYFTVNSKGESVPIHEVAWGEADDVPTHMILQFTSSHGGAYIGSPGNSLYIDNVKLIYLEHHHHHH | soluble |
| MGSDKIHHHHHHMALRIYGDSISGNCLKVKWTADRLGIAYDWIETNVLTAETRTSAFMALNPAGQVPLAVFPDGRPLAQSNAIIFHLAEGSDLIPGNAFDRAKMLEWMFWEQYSHEPYIAVARFQVLYLGKPVESLEPRLIERGADALARLETQLQRSTFLVGDKLTLADVALVAYTRVAHEGGFDLSLYPAVEAWVGRVEADLGIR | not soluble |
| MAHHHHHHMKGLHIRPMNDSRLCERIKVLDDYCFPVKYTESYYNDYVRNSFHEFNQLAFYHDILVGSITCRLEKTATDGEHVLYIMTIGVLEAYRHLRIGSRLLQTVLSAVHNDTRNRIVAVTLHVQVGSPALKLYRQFNFEEVQLVENYYTDLDECNAILLRRVVPQPHFEHHKKFK | not soluble |
| MMSNRSDFIVPDEAAVKRAASVNFHLEPLRPWLDDPQITEVCVNRPGEVFCERASAWEYYAVPNLDYEHLISLGTATARFVDQDISDSRPVLSAILPMGERIQIVRPPACEHGTISVTIRKPSFTRRTLEDYAQQGFFKHVRPMSKSLTPFEQELLALKEAGDYMSFLRRAVQLERVIVVAGETGSGKTTLMKALMQEIPFDQRLITIEDVPELFLPDHPNHVHLFYPSEAKEEENAPVTAATLLRSCLRMKPTRILLAELRGGEAYDFINVAASGHGGSITSCHAGSCELTFERLALMVLQNRQGRQLPYEIIRRLLYLVVDVVVHVHNGVHDGTGRHISEVWYDPNTKRALSLQHSEKT | soluble |
| MYSIIRPFLLHAVTSVHAGSGSEIGLVDLPIQREKHTGFPKIESSSLKGALRYHMTQALPDETNKLELIFGADKGQESVTQASAIALSDARVLLFPVKSLRGVFAWITCPHVLERWNQEMSVHQEMKGKGEGFQSLPVPGPNTVSADRLIVADGRIILEEYTFPVTVSPEAKQLAEQLSAIIGESSRLRVTDRLVILSDDDFTDFVKLSTEVNARIRISPETGTVDSGALWYEENVPPETFFYSFLYIGHVRGKGVDGLATAEEIERYLVDERKFPSVFQLGGNSTLGRGMMRTIWL | not soluble |
| MAPATERNRDAILAVLKDELRSPGTVLEIASGTGEHGAYFAPQLPDYFWQPSDPNEESRRSIAAWRSHVNAPNLGEAIAIDVTRSDWVESVPEFPQPVVAIAAINLIHISPWEATLGLFAGAKQLLSVDGLIYLYGAYKRGGQHTAPSNEAFDASLQARNPAWGARNLEDVTAVAEAEQFRLDRIVEMPSNNLSVCFRAIALEHHHHHH | not soluble |
| MGSSHHHHHHSSGRENLYFQGHMRILWILPYSPWPTTSGGKTRQYHLLRSLAARGHRITVLLHSKQPVSAEDRQALEPFLERLVVLPRRPLRSLSTLLAALFAPYPLLASVNGLSAELQRTATELLREPWDVVQVEHSYSFQPYERPLRDAGQPFVLTEHNVESSLGAATYDRLPGWALPFVRYDQWRYRRWERRVMSQAAAVVAVTEKDARQLGAMLGRPVPVVVNGVDCEHFATARPTPEAQRVLFLGNYEYAPNVDAVEWMLDEILPRVWAHCPEARMSVCGYALPAEWAQRWSDPRIEWQGFVPDLLQLQSSSSVFLAALRHGGGSKLKVLEALAAGLPLASTAQGVSGLELRDGEDYLGGESAEQLANAVVRLLQDPAQARALGENGRAYVRRAHDWSVAASQLEQVYAGLAEGAPACA | soluble |
| MGSDKIHHHHHHMSEIETIQAYYAASLGKDGRITRTQRQILAAALDLFAEKGYEEVGTREIAERAGVAEGTLFHNFVNKNGILDAIMQPIVQNILPTMLNTLDQAVLDSPNQTLQAFVVALVRDRVAFVTRNRASLAVILSQFFNNAQDRAAVLGMVSPSILAQANEAMDRLKAARELVDWPNRMILQLVFSTIGGYLVEQVLYPQLDDLSDEQLIHYLSDFLVNGLSPRRIPLQDDNTAS | not soluble |
| LVLEGGGMRGVFTCGVLDYLMDHDIRFPYAIGVSAGACNGLSYASRQRGRAKFSNIDLLEKYNYIGLKHLLRKRNILDFDLLFNEFPEHILPYDYDTYFASPERFVMVTTNCMTGEANYFEEKRDKSRVIDIVRASSSLPFVCPVTYVDGVPMLDGGIVDSIPLQRAIADGYTRNVVILTRNRGYRKDTKDIRIPSFVYRKYPKLREALSRRCAVYNEQLEMVEQMEDEGKIIVIRPQKPVMVDRIERDVQKLTEFYEEGYDCARNLFEF | not soluble |
| MSLKLWENGTFYQMTAEGEQVSAVLTKNGQIHAVGEVADLKKQYATEIDETIDLEGKVVFPGFVDAHIHLLWYGQALERLNLNQTTTKKEALALILERTKQLASEEWLFVEGYDENKWSDEQTLISLVDLDGVSTTNPILVRRIDYHSVSINSALKAHIENFSENGFDGGGEIVRDKAGNFTGILRDNATTLAIDAFPAATPAELNAWLKIAITDLWSKGITGAHSEDLHYFTGFESTFAAFRNTVGANRLPFRAHLLIHHAELANFSTSKESFMSGDKFLELGAMKIFYDGTVGSRTALMSAGYADNPNEKGLQIHSDEAFEDLVQSARKAGLPVAIHILGDQAFANVIRTLRANPPKEGQYDRLIHTPWLTKELIAEAEGLPILFDVQPQFMASDLPWAIDVLGENHPPLAFAWNSLLRAGFPLAGGSDAPIEVPNPFWGIHAAVTRTANADLNGVKYWPEESLTVYEAIELYTKGAAFASYKTTSRGQIAPGFVADFTILAEDPFLIKPANLRHLEVMMTVVNEQVVYKKEGHHHHHH | soluble |
| MGSDKIHHHHHHMEVFCDVDDFCAVFIPEWEKTLLTDGTRKRQRAGRMTMSEVMTIIILFQMSHHRDFKNFYIGYLAHFYKSAFPNLLSYTRFLEVMPTALVPLCSDFTCLKSEPTGTEFVDSTRIKVCHNLRIHRHKTLAGLACRGKGTMGWFYGFKLHLIVNHQGGIVAAKVTPANVHDTKPMNEMVRSDMDKLYADKGFISKALSSELQEKGVTLVTNVRKNMKEKVMSLWDRAMLSRRFIIETINDQLKNISQIEHSRHRSGHGFMLNMIAGLIAYQLKDNKPQLNITSAEFNAIAVMAR | not soluble |
| SLDGILDHTMIRVEDLDASLEWYTTHLNYEEKGRWEAETFTNVYLGPEDAGDAAARLELTYNHDGRSYTMGDAWGHIAVRVPDVEAAYDELMQSGVEDYRPPAENPGYAFVTDPDGHEVEIVERDYGTKWSLDHTMLRVEDVNAALGYWIRTFEYEPTGRWEADSFANYFVSPQDAPAEAMDIELTYNYDGRSYTMGDAWGHVAVRCADLQSAWETLQEREAPDYRDPESCDNRYAFTKAPDGHEIEILPTEEG | not soluble |
| MGSDKIHHHHHHNTEQQLDSEVSEPTKTMRSQQHSDGAAAITHLTPLDLPLDSQGLTDEDSQQINSLLNQLHESAMSADWDTYFDLYHPDAAFIGTDATERWNMVHFRRYASPTQGWRYDLQARHLLQIEDVVVFDEQLYSPEYGISRGTGALVNTTKGWKIAQYHLSFPIPNAKAKRITTLIKQ | not soluble |
| MGSDKIHHHHHHMNTNTSITIQKPKTDELLLWNLLFADTGRQVLLVAYDIKLFPLLSQKPCTLAEICNELKIFQRPAEAILAVLASIELLEIENNYYSLTLLAKDYLVKSSPTYFGALLEMMIFDERKHISSFDSLKKSLFTNNYPGKKVMESLVKNHDFMRTITFGNNVKLIRGFISSMHGPSMAAALIWPELIDLSEYKLFIDIGGGSAAHSIGATLKWPNLQAVVLELPTVCEIAQEFITHYGLQNRIATQEFDMWSDTFPVGDLHFYSAVYHHWQQEKCQVITKKSFNSLLPGGRIILHEMLFNEQKTGPFPVAAKNLNISLKLGGQQYSGQELSMMLEQAGFIDIEIKPASSYWSIITGRKP | not soluble |
| MKNEKIVVLYGGDSPEREVSLKSGKAVLDSLISQGYDAVGVDASGKELVAKLLELKPDKCFVALHGEDGENGRVSALLEMLEIKHTSSSMKSSVITMDKMISKEILMHHRMPTPMAKFLTDKLVAEDEISFPVAVKPSSGGSSIATFKVKSIQELKHAYEEASKYGEVMIEQWVTGKEITVAIVNDEVYSSVWIEPQNEFYDYESKYSGKSIYHSPSGLCEQKELEVRQLAKKAYDLLGCSGHARVDFIYDDRGNFYIMEINSSPGMTDNSLSPKSAAAEGVDFDSFVKRIIEQAQ | not soluble |
| MKEIIARHKAGEHLGICSVCSAHPLVIESALLFDLNTDNKVLIEATSNQVNQFGGYTGMKPADFRDFVYGIAQEVGFPRERLILGGDHLGPNCWQNEPAAAAMEKSVELIKAYVAAGFSKIHLDASMSCADDPTPLDPMVVARRAAVLCKAAEGTANEEQKCHLTYVIGTEVPVPGGEASTIGSVHVTREVDAARTLETHQIAFRESGLEEALSRVIAIVVQPGVEFDHTQIIHYQPQAAQALSAWIKETPMVYEAHSTDYQTRQAYRALVRDHYAILKVGPALTFALREAIFALAQMENELISPEQRSRVLEVIDEVMLNEPGYWKKYYRPTWSQAMVDIHFSLSDRIRYYWPHPRIRQSVEKLIANLNNVTLPLGLISQFMPVQFERLSEGVLTPTPHNLIIDKIQDVLRAYRFGCTPDVA | not soluble |
| SMSVKKPKRDDSKDLALCSMILTEMETHEDAWPFLLPVNLKLVPGYKKVIKKPMDFSTIREKLSSGQYPNLETFALDVRLVFDNCETFNEDDSDIGRAGHNMRKYFEKKWTDTFKVS | soluble |
| SDIEQKQAEIIDQLVKRASTCKSEALGPLIIEATSHPSLFAFSEILALPNVAQLEGTTDSVYLDLLRLFAHGTWGDYKCNATRLPHLSPDQILKLKQLTVLTLAESNKVLPYDTLMVELDVSNVRELEDFLINECMYAGIVRGKLDQLKRCFEVPFAAGRDLRPGQLGNMLHTLSNWLNTSENLLISIQDKIKWADNMSEMDKKHRKEAEEGVEEVKKSLSMKGDVDIRGNKEMFGEPSGVMDYEEDGIRPKRRRHPVTR | soluble |
